Paper doi:10.1101/2022.10.04.510902 (bioRxiv, 2022)

Experiments:
[1] = target: TAMRA-BMAL1 mTAD WT probe (mouse); assay: fluorescence polarisation
[2] = target: TAMRA-BMAL1 mTAD Δswitch probe (594-F619Y) (mouse); assay: fluorescence polarisation
[3] = target: BMAL1 transactivation domain (TAD), residues 579-626 (mouse); assay: ITC
[4] = target: Full-length mouse His-PERIOD2-flag (mouse, UniProt O54943 1-1257); assay: pull-down
Full-length mouse His-PERIOD2-flag, sequence (O54943 whole entry): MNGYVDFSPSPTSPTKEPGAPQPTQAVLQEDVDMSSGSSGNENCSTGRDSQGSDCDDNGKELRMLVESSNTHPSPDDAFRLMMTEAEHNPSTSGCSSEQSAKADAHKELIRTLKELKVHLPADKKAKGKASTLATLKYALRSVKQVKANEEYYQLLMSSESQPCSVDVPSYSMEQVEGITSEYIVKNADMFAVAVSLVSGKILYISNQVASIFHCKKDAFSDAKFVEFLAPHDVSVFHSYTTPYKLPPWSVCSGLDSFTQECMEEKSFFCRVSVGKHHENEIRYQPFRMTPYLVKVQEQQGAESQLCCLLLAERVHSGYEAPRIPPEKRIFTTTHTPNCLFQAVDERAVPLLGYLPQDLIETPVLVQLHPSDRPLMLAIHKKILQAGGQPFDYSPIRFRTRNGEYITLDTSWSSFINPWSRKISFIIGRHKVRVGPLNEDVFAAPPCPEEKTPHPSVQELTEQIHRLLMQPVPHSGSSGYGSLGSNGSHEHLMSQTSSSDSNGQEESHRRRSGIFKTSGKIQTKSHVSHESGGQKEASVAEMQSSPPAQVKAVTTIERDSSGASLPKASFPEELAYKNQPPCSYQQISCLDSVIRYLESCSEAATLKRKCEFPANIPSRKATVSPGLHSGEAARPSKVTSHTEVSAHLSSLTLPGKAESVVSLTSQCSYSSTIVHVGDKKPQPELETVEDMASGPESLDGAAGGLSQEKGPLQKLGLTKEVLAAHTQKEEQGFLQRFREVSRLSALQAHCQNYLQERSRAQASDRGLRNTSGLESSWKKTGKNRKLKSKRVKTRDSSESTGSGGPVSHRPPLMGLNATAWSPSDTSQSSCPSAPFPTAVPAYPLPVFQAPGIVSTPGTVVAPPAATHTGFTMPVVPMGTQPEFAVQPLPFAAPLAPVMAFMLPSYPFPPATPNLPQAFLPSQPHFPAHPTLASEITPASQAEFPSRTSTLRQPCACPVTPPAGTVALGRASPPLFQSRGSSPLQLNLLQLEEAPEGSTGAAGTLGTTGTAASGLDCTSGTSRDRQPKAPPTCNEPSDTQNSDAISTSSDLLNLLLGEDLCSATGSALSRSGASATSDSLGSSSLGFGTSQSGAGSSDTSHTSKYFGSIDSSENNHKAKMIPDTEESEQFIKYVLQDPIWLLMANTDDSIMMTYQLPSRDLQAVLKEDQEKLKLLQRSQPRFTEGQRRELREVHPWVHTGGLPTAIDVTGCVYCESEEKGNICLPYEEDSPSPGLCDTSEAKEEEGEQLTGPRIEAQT

B1: CHRONO minimal repressive domain (MRD), tag form not stated (domain or fragment)
chain: ELETSLNTQGCTTEGDLLFAQKCKELQGFIPPLTDLLNGLKMGRFERGLSSFQQSVAMDRIQRIVGVLQKPQMGERYLGTLLQVEGMLKTWFPQIAAQKSSLGGGKHQLTKHFPSHHSDSAASSPASPMEKMDQTQLGHLALKPK
[1]
  IC50: 375 nM
  Kd: 386 nM
[2]
  Kd: 1540 nM

B2: His-CHRONO minimal repressive domain (MRD) (domain or fragment)
chain: ELETSLNTQGCTTEGDLLFAQKCKELQGFIPPLTDLLNGLKMGRFERGLSSFQQSVAMDRIQRIVGVLQKPQMGERYLGTLLQVEGMLKTWFPQIAAQKSSLGGGKHQLTKHFPSHHSDSAASSPASPMEKMDQTQLGHLALKPK
[3]
  Kd: 369 nM
  stoichiometry N: 1

B3: CK1δ kinase domain (residues 1-294) (enzyme, human, UniProt P48730 1-294, looked up)
chain: MELRVGNRYRLGRKIGSGSFGDIYLGTDIAAGEEVAIKLECVKTKHPQLHIESKIYKMMQGGVGIPTIRWCGAEGDYNVMVMELLGPSLEDLFNFCSRKFSLKTVLLLADQMISRIEYIHSKNFIHRDVKPDNFLMGLGKKGNLVYIIDFGLAKKYRDARTHQHIPYRENKNLTGTARYASINTHLGIEQSRRDDLESLGYVLMYFNLGSLPWQGLKAATKRQKYERISEKKMSTPIEVLCKGYPSEFATYLNFCRSLRFDDKPDYSYLRQLFRNLFHRQGFSYDYVFDWNMLK
[4]
  binding result: binds
